Assay: yeast display, Sf9 membrane polyspecificity reagent, FACS + sequencing; frameworks hold sequencing errors
Outline: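 Nanobodies came from a synthetic yeast display library in Saccharomyces cerevisiae BJ5465, induced with galactose for 36–48 hours and stained for 1 hour at 4 °C with 10% biotinylated, detergent-solubilized Sf9 membrane reagent. Cells were enriched on streptavidin microbeads and then FACS-sorted, with low and high (top ~1%) gates set on anti-HA fluorescence for expression and streptavidin fluorescence for reagent binding. Each polyreactivity label reflects the gate a clone came from. Genes were amplified by colony PCR, sequenced by MiSeq 2 × 250 and filtered by CDR length.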
In the case of “QVQLVESGGGLVQAGGSLRLSCAASGSTFYVYAMGWYRQAPGKERELVAAIDDSGDRTYYADSVKGRFTISRDNAKNTVYLQMNSLKPEDTAVYYCAAEYDSWEYDYWGQGTQVTVSS”, the “polyreactivity (PSR sort gate)” value is reported as “low polyreactivity”. For “QVQLVESGGGLVQAGGSLRLSCAASGSTFYVYAMGWYRQAPGKERELVASITRGGGTYADSVKGRFTISRDNAKNTVYLQMNSQKPEDTAVYYCNARWQRSTGGRQRYDYWGQGTQVSVSS”, the “polyreactivity (PSR sort gate)” value was “high polyreactivity”. For “QVQLVESGGGLVQAGGSLRLSCAASGSTFYYNAMGWYRQAPGKEREFVAANSSRGGSTYYADSVKGRFTISRDNAKNTVYLQMNSLKPEDTAVYYCAADYYVWTPIGVRQYDYWGHGTQVTVSS”, the “polyreactivity (PSR sort gate)” value was “high polyreactivity”. For “QVQLVESGGGLVQAGGSLRLSCAASGSTFYYNAMGWYRQAPGKERELVAAISKRGGTTSYADSVKGRFTISRDNAKNTVYLQMNSLKPEDTADYYCADQTYLRQYYRYYWGQGTQVTVSS”, the “polyreactivity (PSR sort gate)” value was “high polyreactivity”. With “QVQLVESGGGLVQAGGSLRLSCAASGSTFYYNAMGWYRQAPGKERELVARISRAGASTYYAVAVKGRFTISRDNAKNTVYLPMNSLTPEDTAGYYCAARKKKYGYDNWGQATQVTVSS” the “polyreactivity (PSR sort gate)” value was “high polyreactivity”. For “QVQLVESGGGLVQAGGSLRLSCAASGSTFYYNAMGWYRQAPGKERELVARISRSGGSTYADSVKGRFTISRDNAKNTVYLQMNSLKPEDTAVYYCNADAYGTPEFTSYAVRYDYWGQGTQVNVSS”, the “polyreactivity (PSR sort gate)” value was “low polyreactivity”. For “QVQLVESGGGLVQAGGSLRLSCAASGSTFYYNAMGWYRQAPGKERELVAVITLNGGRTSYADSVKGRFTISRDNAKNTVYLQMNSLKPEDTAVYYCAADRYRGYGYWGQGTQVTVSS”, the “polyreactivity (PSR sort gate)” value was “low polyreactivity”. For “QVQLVESGGGLVQAGGSLRLSCAASGSTFYYNAMGWYRQSPGKERELVARISRSGGSTYADSVKRRFTISRDNAKNTVYLQMNSLKPEDTAVYYCNAEAYGTPEFTSYAVRYDYWGQGTQVTVSS”, the “polyreactivity (PSR sort gate)” value was “low polyreactivity”. In the case of “QVQLVESGGGLVQAGGSLRLSCAASGSTFYYNGMGWYRQAPGKERELVARITRTGGSTYYADSVKGRFTISRDNAKNTVYLQMNSLKPEDTAVYYCNADYYSRTKRKYRYGYWGQGTQVTVSS”, the “polyreactivity (PSR sort gate)” value is reported as “high polyreactivity”. With “QVQLVESGGGLVQAGGSLRLSCAASGSTFYYYAMGWYRQAPGKERELVAAIRLIGGTTYYADSVKGRFTISRDNAKNTVYLQMNSLKPEDTAVYYCNARYSTGYTSPSYWGVYKHYDSWGQGTQVTVSS” the “polyreactivity (PSR sort gate)” value was “low polyreactivity”. For “QVQLVESGGGLVQAGGSLRLSCAASGSTFYYYAMGWYRQAPGKERELVAAISATGGSTYYADSVKGRFTISRDNAKNTVYLQMNSLKPEDTAVYYCAAYASRRLRTIRIFGNDYWGQGTQVTVSS”, the “polyreactivity (PSR sort gate)” value was “high polyreactivity”. For “QVQLVESGGGLVQAGGSLRLSCAASGSTFYYYAMGWYRQAPGKERELVASINKIVGITDYADSVKGRFTISRDNAKNTGYLQRNSLTPEDTAVYYCAAHGRINPDVPRTDFFASEEDYWGQGTQVTVSS”, the “polyreactivity (PSR sort gate)” value was “low polyreactivity”. With “QVQLVESGGGLVQAGGSLRLSCAASGSTFYYYTMGWSRQAPGKERELVAAITYSGGSTRYADSVKGRFTISRDNAKNTVYLQMNSLKPEDTAVYYCAAELTEWTNGFDYWGQGTQVTVSS” the “polyreactivity (PSR sort gate)” value was “high polyreactivity”. With “QVQLVESGGGLVQAGGSLRLSCAASGSTFYYYTMGWYRQAPGKERELVAAITYSGGSTRYADSVKGRFTISRDNAKNTVYLQMNSLKPEDTAVYYCAAGYYWSSFAFRDMDYWGQGTQVTVSS” the “polyreactivity (PSR sort gate)” value was “high polyreactivity”. For “QVQLVESGGGLVQAGGSLRLSCAASGSTFYYYTMGWYRQAPGKERELVAVISRDGRTNYADSVKGRFTISRDNAKNTVYVQMNSLKPEDTAVYYCNADYYWNGVYHYDYWGQGTQVTVSS”, the “polyreactivity (PSR sort gate)” value was “low polyreactivity”. In the case of “QVQLVESGGGLVQAGGSLRLSCAASGSTFYYYVMGWYRQAPGKERELVAAISSGGHTNYADSVKGRFTISRDNAKNTVYLQMNSLKPEDTAVYYCAAKPWRGTLLRYGYWGQGTQVTVSS”, the “polyreactivity (PSR sort gate)” value is reported as “high polyreactivity”. In the case of “QVQLVESGGGLVQAGGSLRLSCAASGSTIADNAMGWYRQAPGKERELVAAITRSGVRTYYADSVKGRFTISRDTAKNTVYLQMNSLKPEDTAVYYCAKRTYPSRIYDYWGQGTQVTVSS”, the “polyreactivity (PSR sort gate)” value is reported as “high polyreactivity”. With “QVQLVESGGGLVQAGGSLRLSCAASGSTIDHNAMGWYRQAPGKERELVATISSSGGSTYYADSVKGRFTISRDNAKNTVYLQMNSLKPEDTAVYYCAVRAYYWRSYPYNYWGQGTQVTVSS” the “polyreactivity (PSR sort gate)” value was “high polyreactivity”. With “QVQLVESGGGLVQAGGSLRLSCAASGSTIFIYAMGWYRQAPGKERELVAAISGSGGTTYYADSVKGRFTISRDNAKITVYLQMNSLKPEDTAVYYCATDITLWYAYSHEGLYIGYYWGQGTQVSVSS” the “polyreactivity (PSR sort gate)” value was “low polyreactivity”. For “QVQLVESGGGLVQAGGSLRLSCAASGSTIFSYAMGWYRQSPGKERELVAAITYRSSRTYYADSVKGRFTISRDNAKNTVYLQMNSLKPEDTAVYYCARGGTAYRYHMDYWGQGTQVTVSS”, the “polyreactivity (PSR sort gate)” value was “high polyreactivity”. For “QVQLVESGGGLVQAGGSLRLSCAASGSTIGIYAMGGYRQAPGKERELVAAISSGGSTNYGDSVKGRFTISRDNEKNTVYLQMNSLKQEDTAVYYCAVESVYEYGGYVDSAYDYWGQGTQVTVSS”, the “polyreactivity (PSR sort gate)” value was “low polyreactivity”. In the case of “QVQLVESGGGLVQAGGSLRLSCAASGSTIGPYARGWYRQAPGKERELVAAIRYSSVRTYYADSVKGRFTISRDNAKNTVYLQMKSLKPEDTAVYYCNAVFWSYTEWGRSDYWGQGTEVTVSS”, the “polyreactivity (PSR sort gate)” value is reported as “low polyreactivity”. In the case of “QVQLVESGGGLVQAGGSLRLSCAASGSTIGRYAMGWYRQAPGKERELVASIRSSGSTYYADSVKGRFTISRDNAKNTVYLQMNSLKPEDTAVYYCNRGVYYGSRYNYWGQGTQVTVSS”, the “polyreactivity (PSR sort gate)” value is reported as “high polyreactivity”. In the case of “QVQLVESGGGLVQAGGSLRLSCAASGSTIHYYAMGWYRQAPGKERELVAAISSSGVSTYYADSVKGRFTISRDNAKNTVYLQMNSLKPEDTAVYYCNRASVFHYRWYYYGGQGTQVTVSS”, the “polyreactivity (PSR sort gate)” value is reported as “high polyreactivity”. In the case of “QVQLVESGGGLVQAGGSLRLSCAASGSTIIDYDMGWYRQAPGKERELVAGISWSGGRTYYADSVKGRFTISRDNAKNTVYLQMNSLKPEDTEVYYCNKVGRGARTSDYWGQGTQVTVSS”, the “polyreactivity (PSR sort gate)” value is reported as “high polyreactivity”. For “QVQLVESGGGLVQAGGSLRLSCAASGSTILRYAMGWYRQAPGKERELVATISRSDDGTYYADYVKGRFTISRDNAKNTVYLQMNSLKPEDTAVYYCGARSWYLYYYWGLGTQVTVSS”, the “polyreactivity (PSR sort gate)” value was “low polyreactivity”. With “QVQLVESGGGLVQAGGSLRLSCAASGSTILVNAMGWYRQAPGKERELVAAISRGGSTYYADSVKGRFTISRDNAKNTVYLQMTSLKPEDTAVSYCAARGVYVKYYYWGQGTQVTVSS” the “polyreactivity (PSR sort gate)” value was “high polyreactivity”. In the case of “QVQLVESGGGLVQAGGSLRLSCAASGSTINYYAMGWYRQAPGKERELVAAISRRSGSTYYADSVKGRFTISRDNAKNTVYLQMNSLKPEDTAVYYCAAGYGGTFNWGQGTQVTVSS”, the “polyreactivity (PSR sort gate)” value is reported as “high polyreactivity”. With “QVQLVESGGGLVQAGGSLRLSCAASGSTINYYAMGWYRQAPGKERELVAAISSGTSTYYADSVKGRFTISRDNAKNTVYLQMNSLKPEDTAVYYCARRYYYQYRYDYWGQGTQVTVSS” the “polyreactivity (PSR sort gate)” value was “high polyreactivity”. With “QVQLVESGGGLVQAGGSLRLSCAASGSTIPDNTMGWYRQAPGKEREFVAAISRIGGTYYADSVKGRFTISRDNAKNYVYLQMNSLKPEDTAVYDCNAYPQGLSGRYHGFDYWGQGTQVTVST” the “polyreactivity (PSR sort gate)” value was “low polyreactivity”. In the case of “QVQLVESGGGLVQAGGSLRLSCAASGSTIPNYAKGWYRQAPGKERELVARIRWNGDSTYYADSVKGRFTISRDNAKNTVYLQMNSLKPEDTAVYYCARQGYTLYRTRYRYDYWGQGTQVTASS”, the “polyreactivity (PSR sort gate)” value is reported as “high polyreactivity”. In the case of “QVQLVESGGGLVQAGGSLRLSCAASGSTIPRHAMGWYRQAPGKERELVAAITSGGSTNYADSVKGRFTISRDNAKNTVYLQMNSLKPEDTAVYYCAADVIVRVYYYYYVLMDYWGQGTQVTVSS”, the “polyreactivity (PSR sort gate)” value is reported as “low polyreactivity”. For “QVQLVESGGGLVQAGGSLRLSCAASGSTIPSYAMGWYRQAPGKERELVASITYSDGTTRYADSVKGRFTISRDNAKNTVYLQMNSLKPEDTAVYYCAKYYYTSIVGYDSWGQGTQVTVSS”, the “polyreactivity (PSR sort gate)” value was “low polyreactivity”. In the case of “QVQLVESGGGLVQAGGSLRLSCAASGSTIPSYAMGWYRQAPGKERELVASITYSDGTTRYAYSVKGRFTISRDNAKNTVYLQMNSLKPEDTAVYYCNAVYYREGMDYWGQGTQVTVSS”, the “polyreactivity (PSR sort gate)” value is reported as “low polyreactivity”. With “QVQLVESGGGLVQAGGSLRLSCAASGSTIQQYAMGWYRQAPGKEREFVAAISWRGGRTYYADSVKGRFTISRDKAKNTVYLQMNSLKPEDTAVYYCAVDPSIYRLSAYYYDYWGQGTQVTVSS” the “polyreactivity (PSR sort gate)” value was “low polyreactivity”. With “QVQLVESGGGLVQAGGSLRLSCAASGSTIRYYAMGWYRQAPGKERELVAAISYGGGITNYADSVKGRFTISRDNAKNTVYLQMNSLKPEDTAVYCCAAYYRITRYDYWGQGTQVTVSS” the “polyreactivity (PSR sort gate)” value was “high polyreactivity”. With “QVQLVESGGGLVQAGGSLRLSCAASGSTISGNAMGWYRQAPGKERELVAAISQSGGSTYYADSVKGRFTISRDNAKNTVYLQMNSLKPEDTAVYYCNRLYYFLARRMDSWGQGTQVTVSS” the “polyreactivity (PSR sort gate)” value was “high polyreactivity”. In the case of “QVQLVESGGGLVQAGGSLRLSCAASGSTISGYAMGWYRQAPGKERELVATISRGGSTNYADSVKGRFTISRDNAKNTVYLQMNSLKPEDTAVYYCAAQTYVWWVKYHSWGQGTQVTVSS”, the “polyreactivity (PSR sort gate)” value is reported as “low polyreactivity”. With “QVQLVESGGGLVQAGGSLRLSCAASGSTISSYAMGWYREAPGKERELVAAIDRSVSTNYADSVKGRFTISRDNAKNTVYLQMNSLKPEDTAVYYCNARHPTDDIVIYDYWGQGTQVTVSS” the “polyreactivity (PSR sort gate)” value was “low polyreactivity”. With “QVQLVESGGGLVQAGGSLRLSCAASGSTIVRYAMGWYRQAPGKERELVASISSGGTTNYADSVNGRFTISRDNAKNTVYLQMNSLKPEDTAVYFCNGTWAYRGHGYWGQGTQVTVSS” the “polyreactivity (PSR sort gate)” value was “low polyreactivity”. In the case of “QVQLVESGGGLVQAGGSLRLSCAASGSTIWIYAMGWYRQAPGKERELVAAINWSGGNTYYADSVKGRFTISRDNAKNTVYLQMNSLKPEDTAVYYCAAAFYIYGVEGDYWGQGTQVTVSS”, the “polyreactivity (PSR sort gate)” value is reported as “low polyreactivity”.

Reference: the nanobody polyreactivity screen of Harvey et al. (2022)
